{"source": "paper doi:10.1101/2020.06.19.161133", "about": "“Structure of the yeast Nup84-Nup133 complex details flexibility and reveals universal conservation of the membrane anchoring ALPS motif” (bioRxiv, 2020)", "settings_in_all_cases": "both partners purified", "key": {"[1]": {"target": "T1, Nup133 N-terminal domain (Nup133NTD, residues 55-481) (S. cerevisiae, UniProt P36161)", "T1 construct": "Nup133, S. cerevisiae, N-terminal beta-propeller, residues 55-481; The tag is 3C-cleavable; also called scNup133NTD; WT-Nup133NTD; source: E. coli LOBSTR-RIL(DE3), purified (Ni Sepharose, Superdex 75)", "T1 sequence (P36161 55-481)": "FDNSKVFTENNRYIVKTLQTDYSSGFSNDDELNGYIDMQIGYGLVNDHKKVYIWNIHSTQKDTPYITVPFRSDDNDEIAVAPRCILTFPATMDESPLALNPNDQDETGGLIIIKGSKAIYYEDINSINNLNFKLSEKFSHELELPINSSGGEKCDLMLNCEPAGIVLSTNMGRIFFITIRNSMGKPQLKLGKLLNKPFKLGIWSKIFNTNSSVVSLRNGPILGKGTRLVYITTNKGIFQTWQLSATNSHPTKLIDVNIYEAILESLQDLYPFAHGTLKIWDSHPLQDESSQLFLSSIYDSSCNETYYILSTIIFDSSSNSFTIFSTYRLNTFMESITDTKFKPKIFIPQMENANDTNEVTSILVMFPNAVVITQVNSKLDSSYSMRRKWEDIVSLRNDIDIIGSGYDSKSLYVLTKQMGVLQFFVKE", "assay": "crystal structure; Nup133NTD-VHH-SAN4, 2.1 Å, molecular replacement; crystals at 18 °C, PEG 3,350, ammonium sulfate, Bis-Tris/HCl pH 5.5"}, "[2]": {"target": "T2, Nup84-Nup133CTD heterodimeric complex (Saccharomyces cerevisiae (strain ATCC …, UniProt P52891;P36161))", "T2 construct": "Nup84, S. cerevisiae, full length; source: E. coli LOBSTR-RIL(DE3), co-expressed from a bicistronic vector, purified (Ni Sepharose, SP Sepharose, Superdex 200)", "T2 sequence (P52891 whole entry, chain 1 of 2)": "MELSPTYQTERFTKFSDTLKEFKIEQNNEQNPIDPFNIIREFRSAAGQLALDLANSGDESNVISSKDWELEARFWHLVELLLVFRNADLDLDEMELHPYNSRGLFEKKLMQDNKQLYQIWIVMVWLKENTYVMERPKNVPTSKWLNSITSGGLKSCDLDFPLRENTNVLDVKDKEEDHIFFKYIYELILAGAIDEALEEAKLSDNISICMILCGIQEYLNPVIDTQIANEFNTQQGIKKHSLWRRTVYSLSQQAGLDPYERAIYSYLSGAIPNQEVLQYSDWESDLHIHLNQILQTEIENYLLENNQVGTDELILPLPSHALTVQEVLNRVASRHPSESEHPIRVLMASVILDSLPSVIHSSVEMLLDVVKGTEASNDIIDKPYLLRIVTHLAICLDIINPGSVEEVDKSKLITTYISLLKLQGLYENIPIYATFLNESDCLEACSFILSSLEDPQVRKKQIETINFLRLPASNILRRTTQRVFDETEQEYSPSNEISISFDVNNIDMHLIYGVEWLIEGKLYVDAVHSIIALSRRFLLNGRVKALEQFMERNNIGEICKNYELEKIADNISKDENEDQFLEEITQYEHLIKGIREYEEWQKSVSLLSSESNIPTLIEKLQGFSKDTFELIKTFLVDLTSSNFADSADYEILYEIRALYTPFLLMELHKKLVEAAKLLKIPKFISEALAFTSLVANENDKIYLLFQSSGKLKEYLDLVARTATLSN", "T2 sequence (P36161 521-1157, chain 2 of 2)": "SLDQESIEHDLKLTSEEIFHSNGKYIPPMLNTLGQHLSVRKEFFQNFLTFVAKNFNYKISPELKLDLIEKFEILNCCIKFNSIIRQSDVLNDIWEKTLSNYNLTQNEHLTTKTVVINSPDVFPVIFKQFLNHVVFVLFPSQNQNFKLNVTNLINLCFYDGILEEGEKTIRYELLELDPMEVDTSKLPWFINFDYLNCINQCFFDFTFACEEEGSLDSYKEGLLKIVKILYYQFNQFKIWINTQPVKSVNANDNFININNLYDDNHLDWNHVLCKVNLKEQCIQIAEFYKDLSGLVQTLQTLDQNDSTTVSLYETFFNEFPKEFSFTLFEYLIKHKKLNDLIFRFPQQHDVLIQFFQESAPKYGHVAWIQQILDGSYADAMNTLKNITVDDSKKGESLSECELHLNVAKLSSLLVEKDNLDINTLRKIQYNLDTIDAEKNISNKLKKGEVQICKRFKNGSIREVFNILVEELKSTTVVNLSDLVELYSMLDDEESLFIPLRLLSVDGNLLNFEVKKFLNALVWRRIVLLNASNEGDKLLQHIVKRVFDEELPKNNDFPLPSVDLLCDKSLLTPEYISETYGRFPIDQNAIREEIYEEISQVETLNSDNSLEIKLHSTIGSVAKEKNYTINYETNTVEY", "assay": "crystal structure; Nup84-Nup133CTD with VHH-SAN8 and VHH-SAN9, 7.4 Å; same crystal form and conditions as the singly bound complex"}, "[3]": {"target": "T3, Nup84 (full-length, S. cerevisiae) (S. cerevisiae, UniProt P52891)", "T3 construct": "Nup84, S. cerevisiae, full length; The tag is 3C-cleavable; also called scNup84", "T3 sequence (P52891 whole entry)": "as the sequence (P52891 whole entry, chain 1 of 2) above", "assay": "crystal structure; Nup84-Nup133CTD with VHH-SAN8 and VHH-SAN9, 7.4 Å; same crystal form and conditions as the singly bound complex"}, "[4]": {"target": "T2, Nup84-Nup133CTD heterodimeric complex", "assay": "crystal structure; Nup84-Nup133CTD-VHH-SAN8, 6.4 Å, SAD with a polyoxotungstate derivative; crystals at 18 °C, PEG 8,000, ethylene glycol, imidazole/MES pH 6.5"}, "[5]": {"target": "T3, Nup84 (full-length, S. cerevisiae)", "assay": "crystal structure; Nup84-Nup133CTD-VHH-SAN8, 6.4 Å, SAD with a polyoxotungstate derivative; crystals at 18 °C, PEG 8,000, ethylene glycol, imidazole/MES pH 6.5"}, "[6]": {"target": "T1, Nup133 N-terminal domain (Nup133NTD, …)", "assay": "crystal structure; Nup133NTD-VHH-SAN5, 2.8 Å, molecular replacement; six copies in the asymmetric unit; crystals at 18 °C, PEG MME 2,000, potassium chloride, Tris/HCl pH 8"}}}
{"binder": "VHH-SAN4 (VHH, structure deposited as PDB 6X05 (2.1 Å, nanobody chain); Selected by phage display from an alpaca immunised with the full-length Y complex, panned against Nup133NTD; also called nanobody VHH-SAN4; source: E. coli, purified (Ni Sepharose, tag cut with SEN-p protease, Superdex 75); not shown: 14xHis bdSUMO, N-terminal, cleaved) VHH: QLQLVESGGGSVQAGGSLTLSCTASESISKRIHGIGWFRQRRGEQREEIAYITTGGRPNLGDSVKDRFTISRDKSNGTVYLQMNSLKPEDTAVYYCHGRGRWWGTEGRLDYWGQGTQVTVSS", "values": [{"measurement": "binding result", "setting": "[1]", "result": "binds"}]}
{"binder": "VHH-SAN9 (VHH, structure deposited as PDB 6X03 (the model is a nanobody without CDRs placed as a rigid body); Selected by phage display from an alpaca immunised with the full-length Y complex; also called VHH9; nanobody VHH-SAN9; source: E. coli, purified (Ni Sepharose, tag cut with SEN-p protease, Superdex 75); not shown: 14xHis bdSUMO, N-terminal, cleaved) VHH: QVQLVESGGGSVQAGGSLRLSCAVSGGTLSTLAMGWFRQAPGQEREFVARIGWTNGDTGYADSVKGRFTISRDNVKNTVYLQMNNLKPEDTALYYCATRRPYGSTLYPPNTESAHDNWGQGTQVTVSS", "values": [{"measurement": "binding result", "setting": "[2]", "result": "binds"}, {"measurement": "binding result", "setting": "[3]", "result": "binds"}]}
{"binder": "VHH-SAN8 (VHH, structure deposited as PDB 6X02 and 6X03 (the model is a generic nanobody without CDRs, PDB 1BZQ, placed as a rigid body); Selected by phage display from an alpaca immunised with the full-length Y complex, panned against Nup84; also called VHH8; nanobody VHH-SAN8; source: E. coli, purified (Ni Sepharose, tag cut with SEN-p protease, Superdex 75); not shown: 14xHis bdSUMO, N-terminal, cleaved) VHH: QLQLVETGGGLVQAGGSLRLSCVASGRTFTSYAMGWFRQAPGKEREFVAAISRLASGTDYADSVKGRFTISRNNDKNTVYLQMNNLIPEDTAVYYCAALQALRFSLPIAMATMKNGRADSWGQGTQVTVSS", "values": [{"measurement": "binding result", "setting": "[4]", "result": "binds"}, {"measurement": "binding result", "setting": "[5]", "result": "binds"}]}
{"binder": "VHH-SAN5 (VHH, structure deposited as PDB 6X04 (2.8 Å, nanobody chains); Selected by phage display from an alpaca immunised with the full-length Y complex, panned against Nup133NTD; also called nanobody VHH-SAN5; source: E. coli, purified (Ni Sepharose, tag cut with SEN-p protease, Superdex 75); not shown: 14xHis bdSUMO, N-terminal, cleaved) VHH: QVQLVESGGGLVQAGGSLRLSCAASGSIGSLDAMAWYRRAPGKQRERVASISRYGTYYVDSVKGRFTISRDNAKNTVYLQMNSLKPEDTGVYYCKGVMEVGGVIDEYWGQGTQVTVSS", "values": [{"measurement": "binding result", "setting": "[6]", "result": "binds"}]}
